Target: T1, Mycobacterium marinum GroEL1, recombinant (Mycobacterium marinum, UniProt B2HD10 1-539)
T1 construct: also called Mmr GroEL1
Test: BLI
Conditions: both partners purified

Binder	Kd [nM]
GroEL1 sybody number 5 (VHH, not shown: Myc, C-terminal, kept; His6, C-terminal, kept) VHH: QVQLVESGGGLVQAGGSLRLSCAASGFPVEHKQMRWYRQAPGKEREWVAAIESSGQYTIYADSVKGRFTISRDNAKNTVYLQMNSLKPEDTAVYYCFVGVGAGYYGQGTQVTVSA	~127
GroEL1 sybody number 9 (VHH, not shown: Myc, C-terminal, kept; His6, C-terminal, kept) VHH: QVQLVESGGGLVQAGGSLRLSCAASGLPVWQQGMTWYRQAPGKEREWVAAIDSVGAQTYYADSVKGRFTISRDNAKNTVYLQMNSLKPEDTAVYYCAVNVGARYIGQGTQVTVSA	~64
GroEL1 sybody number 31 (VHH, also called GroEL1_SB31; not shown: Myc, C-terminal, kept; His6, C-terminal, kept) VHH: QVQLVESGGGSVQAGGSLRLSCAASGTIYKIYYLGWFRQAPGKEREGVAALNTFSGGTYYADSVKGRFTVSLDNAKNTVYLQMNSLKPEDTALYYCAAAYDMEGYAWPLYWWHYEYWGQGTQVTVSA	~92
GroEL1 sybody number 1 (VHH, not shown: Myc, C-terminal, kept; His6, C-terminal, kept) VHH: QVQLVESGGGLVQAGGSLRLSCAASGFPVEQRQMYWYRQAPGKEREWVAAIQSYGKRTKYADSVKGRFTISRDNAKNTVYLQMNSLKPEDTAVYYCVVYVGGGYKGQGTQVTVSA	~130
GroEL1 sybody number 18 (VHH, not shown: Myc, C-terminal, kept; His6, C-terminal, kept) VHH: QVQLVESGGGLVQAGGSLRLSCAASGFPVKTKHMYWYRQAPGKEREWVAAITSIGMITAYADSVKGRFTISRDNAKNTVYLQMNSLKPEDTAVYYCNVKDWGTNRQAYDYWGQGTQVTVSA	~22
GroEL1 sybody number 12 (VHH, not shown: Myc, C-terminal, kept; His6, C-terminal, kept) VHH: QVQLVESGGGLVQAGGSLRLSCAASGFPVTQAWMEWYRQAPGKEREWVAAIFSHGGGTFYADSVKGRFTISRDNAKNTVYLQMNSLKPEDTAVYYCNVKDTGERDNWYDYWGQGTQVTVSA	~14

Target: T2, Mycobacterium marinum GroEL2, recombinant, biotinylated AVI-tagged form (Mycobacterium marinum, UniProt B2HQP9 1-541)
T2 construct: also called Mmr GroEL2; biotinylated GroEL protein
Test: BLI
Conditions: both partners purified

Binder	Kd [nM]
GroEL2 sybody number 1 (VHH, not shown: Myc, C-terminal, kept; His6, C-terminal, kept) VHH: QVQLVESGGGLVQAGGSLRLSCAASGFPVAITYMHWYRQAPGKEREWVAAISSTGKTTWYADSVKGRFTISRDNAKNTVYLQMNSLKPEDTAVYYCLVEVGHYYKGQGTQVTVSA	~591
GroEL2 sybody number 3 (VHH, also called GroEL2_SB3; not shown: Myc, C-terminal, kept; His6, C-terminal, kept) VHH: QVQLVESGGGLVQAGGSLRLSCAASGFPVAYWEMVWYRQAPGKEREWVAAIRSTGWKTVYADSVKGRFTISRDNAKNTVYLQMNSLKPEDTAVYYCTAVYVGVHYKGQGTQVTVSA	~18
GroEL2 sybody number 19 (VHH, not shown: Myc, C-terminal, kept; His6, C-terminal, kept) VHH: QVQLVESGGGLVQAGGSLRLSCAASGFPVEWLEMAWYRQAPGKEREWVAAIYSYGMETEYADSVKGRFTISRDNAKNTVYLQMNSLKPEDTAVYYCNVKDGGHAAWWYDYWGQGTQVTVSA	~366
GroEL2 sybody number 11 (VHH, not shown: Myc, C-terminal, kept; His6, C-terminal, kept) VHH: QVQLVESGGGLVQAGGSLRLSCAASGFPVDSAYMWWYRQAPGKEREWVAAIESNGEYTFYADSVKGRFTISRDNAKNTVYLQMNSLKPEDTAVYYCNVKDTGAHHSYYDYWGQGTQVTVSA	~271
GroEL2 sybody number 27 (VHH, not shown: Myc, C-terminal, kept; His6, C-terminal, kept) VHH: QVQLVESGGGLVQAGGSLRLSCAASGFPVWKAYMWWYRQAPGKEREWVAAIESNGAYTFYADSVKGRFTISRDNAKNTVYLQMNSLKPEDTAVYYCNVKDTGSDSENYDYWGQGTQVTVSA	~101
GroEL2 sybody number 32 (VHH, not shown: Myc, C-terminal, kept; His6, C-terminal, kept) VHH: QVQLVESGGGLVQAGGSLRLSCAASGFPVVSQFMEWHRQAPGKEREWVAAIDSTGYSTFYADSVKGRFTISRDNAKNTVYLQMNSLKPEDTAVYYCNVKDAGEGQEQYDYWGQGTQVTVSA	~153
GroEL2 sybody number 8 (VHH, not shown: Myc, C-terminal, kept; His6, C-terminal, kept) VHH: QVQLVESGGGLVQAGGSLRLSCAASGFPVYMSWMYWYRQAPGKEREWVAAIMSEGAGTWYADSVKGRFTISRDNAKNTVYLQMNSLKPEDTAVYYCNVKDTGSFHAQYDYWGQGTQVTVSA	~13
GroEL2 sybody number 7 (VHH, not shown: Myc, C-terminal, kept; His6, C-terminal, kept) VHH: QVQLVESGGGLVQAGGSLRLSCAASGFPVNDAWMYWYRQAPGKEREWVAAIMSMGFGTWYADSVKGRFTISRDNAKNTVYLQMNSLKPEDTAVYYCNVKDRGKEHFSYDYWGQGTQVTVSA	~100
GroEL2 sybody number 28 (VHH, not shown: Myc, C-terminal, kept; His6, C-terminal, kept) VHH: QVQLVESGGGLVQAGGSLRLSCAASGFPVDAYWMYWYRQAPGKEREWVAAIMSSGHGTWYADSVKGRFTISRDNAKNTVYLQMNSLKPEDTAVYSCNVKDKGAQAAWYDYWGQGTQVTVSA	~35
GroEL2 sybody number 31 (VHH, not shown: Myc, C-terminal, kept; His6, C-terminal, kept) VHH: QVQLVESGGGLVQAGGSLRLSCAASGFPVWMEWMYWYRQAPGKEREWVAAIMSEGDGTWYADSVKGRFTISRDNAKNTVYLQMNSLKPEDTAVYYCNVKDFGYNNNYYDYWGQGTQVTVSA	~66
GroEL2 sybody number 9 (VHH, also called GroEL2_SB9; not shown: Myc, C-terminal, kept; His6, C-terminal, kept) VHH: QVQLVESGGGLVQAGGSLRLSCAASGFPVYQSWMYWYRQAPGKEREWVAAIMSDGSGTWYADSVKGRFTISRDNAKNTVYLQMNSLKPEDTAVYYCNVKDFGHSRSRYDYWGQGTQVTVSA	~277
GroEL2 sybody number 33 (VHH, not shown: Myc, C-terminal, kept; His6, C-terminal, kept) VHH: QVQLVESGGGLVQAGGSLRLSCAASGFPVYQHWMYWYRQAPGKEREWVAAIMSQGAGTWYADSVRGRFTISRDNAKNTVYLQMNSLKPEDTAVYYCNVKDLGKAEYNYDYWGQGTQVTVSA	~244
GroEL2 sybody number 22 (VHH, not shown: Myc, C-terminal, kept; His6, C-terminal, kept) VHH: QVQLVESGGGLVQAGGSLRLSCAASGFPVYHSWMYWYRQAPGKEREWVAAIMSDGHGTWYADSVKGRFTISRDNAKNTVYLQMNSLKPEDTAVYYCNVKDTGSSTTIYDYWGQGTQVTVSA	~507
GroEL2 sybody number 2 (VHH, not shown: Myc, C-terminal, kept; His6, C-terminal, kept) VHH: QVQLVESGGGLVQAGGSLRLSCAASGFPVSSSTMTWYRQAPGKEREWVAAIDSVGNETYYADSVKGRFTISRDNAKNTVYLQMNSLKPEDTAVYYCAVFVGSYYGQGTQVTVSA	~157
GroEL2 sybody number 10 (VHH, not shown: Myc, C-terminal, kept; His6, C-terminal, kept) VHH: QVQLVESGGGLVQAGGSLRLSCAASGFPVKHWYMHWYRQAPGKEREWVAAIQSTGSYTAYADSVKGRFTISRDNAKNTVYLQMNSLKPEDTAVYYCNVKEYGFYHASYDYWGQGTQVTVSA	~193
GroEL2 sybody number 16 (VHH, not shown: Myc, C-terminal, kept; His6, C-terminal, kept) VHH: QVQLVESGGGLVQAGGSLRLSCAASGFPVSSSTMTWYRQAPGKEREWVAAIESWGAYTWYADSVKGRFTISRDNAKNTVYLQMNSLKPEDTAVYYCNVKDYDGVADVIYDYWGQGTQVTVSA	~15
